The values that follow come from paper PMC7431086, “Molecular basis of the selective processing of short mRNA substrates by the DcpS mRNA decapping enzyme” (Proceedings of the National Academy of Sciences of the …, 2020).

This data set concerns the molecule itself. The experiment in a line: crystal structure; DcpS (8-350, H268N) in 1:1 complex with m7GpppGU RNA, 5 mg/mL, 10 mM Hepes pH 7.5, 100 mM NaCl, 1.6 M NH4SO4; space group P212121, two dimers per asymmetric unit; 2.9 A.

B1: DcpS from S. cerevisiae (residues 8-350; H268N) (enzyme, UniProt Q06151 8-350, looked up)
chain: FASLIKRFQFVSVLDSNPQTKVMSLLGTIDNKDAIITAEKTHFLFDETVRRPSQDGRSTPVLYNCENEYSCINGIQELKEITSNDIYYWGLSVIKQDMESNPTAKLNLIWPATPIHIKKYEQQNFHLVRETPEMYKRIVQPYIEEMCNNGRLKWVNNILYEGAESERVVYKDFSEENKDDGFLILPDMKWDGMNLDSLYLVAIVYRTDIKTIRDLRYSDRQWLINLNNKIRSIVPGCYNYAVHPDELRILVHYQPSYYHFNIHIVNIKHPGLGNSIAAGKAILLEDIIEMLNYLGPEGYMNKTITYAIGENHDLWKRGLEEELTKQLERDGIPKIPKIVNGFK
notes: Crystallised as a 1:1 complex with the capped dinucleotide m7GpppGU; also called Dcs1p; Scavenger Decapping Enzyme
Take B1: the binding result is recorded as “binds”.
